In publication PMC12691606:

Molecular target: RGNNV capsid protein (CP) of the virus (red-spotted grouper nervous necrosis virus (RGNNV))

B1: His-EcCXCR4b recombinant protein (pET-32a-EcCXCR4b) (receptor)
chain: MSYYEHIVFDYDLNDTGSGSGSGDMGVDLQELCDMEHVITDELQQVFLPVVYALIFILGITGNGLVVIVLGCQRRSKCSLTDRYRLHLSAADLLFVLALPFWAVDAALADWRFGEVTCVGVNVIYTVNLYGSVLILAFISLDRYLAVVRATDTNTGELRQLLAHKLVYVGAWLPAGLLAVPDLIYARTQEGGEGATLCQRFYPADNGPIWVAVFHLQLVLVGLVIPGLVLLVCYCVIVTRLTRGPLGGQRQKRRAVRTTIALVLCFFVCWLPYGAGISVDALLRLEVLPRSCRLEAILGVWLAVAEPMAFAHCCLNPLLYAFLGAGFKSSARRALTLSRASSLKILPRRRPGASTTTESESSSLHSS
- survival rate of groupers over 14 days after injection of RGNNV pre-incubated with His-EcCXCR4b protein (6× His control: 23.3%): 73.3%
